Substitutions are numbered along the chain they refer to. In names and notes the source's numbering stands. Where two headings read alike, the source gives them in different places.
B1: ADC-3 (KIH YR8/ZH3 conjugated to LD-14) (bispecific antibody, human IgG1, kappa)
heavy 1: not shown
light 1: EIVLTQSPATLSLSPGERATLSCSASSQVSYIHWYQQKPGQAPRPWIYETSKLASGIPARFSGSGSGTDYTLTISSLEPEDFAVYYCQQWNYPLITFGQGTKLEIKRTVAAPSVFIFPPSDEQLKSGTASVVCLLNNFYPREAKVQWKVDNALQSGNSQESVTEQDSKDSTYSLSSTLTLSKADYEKHKVYACEVTHQGLSSPVTKSFNRGEC
heavy 2: not shown
light 2: DIQMTQSPSAMSASVGDRVTITCKASQDIYSYLSWFQQKPGKVPKTLIYRANRLVRGVPSRFSGSGSGQEYTLTISSLQPEDMATYYCLQYDEFPYTFGQGTKLEIKRTVAAPSVFIFPPSDEQLKSGTASVVCLLNNFYPREAKVQWKVDNALQSGNSQESVTEQDSKDSTYSLSSTLTLSKADYEKHKVYACEVTHQGLSSPVTKSFNRGEC
modifications: linker-drug LD-14 (eribulin) on cysteine sulfhydryls of reduced disulfides; average DAR between 3.7 and 4.3
B2: KIH YR8/ZH3, an ROR1-targeting biepitopic antibody (bispecific antibody, human IgG1, kappa)
heavy 1: not shown
light 1: B1 light 1
heavy 2: not shown
light 2: B1 light 2
notes: chain 1: YR-8-ES arm with Fc knob (T366W); chain 3: AM3-ZH3 arm with Fc hole (T366S, L368A, Y407V); made by reduction and mixing of YR-8-ES variant 1 and AM3-ZH3 variant 1
B3: ADC-4 (KIH YR8/ZH3 conjugated to LD-1) (bispecific antibody, human IgG1, kappa)
heavy 1: not shown
light 1: B1 light 1
heavy 2: not shown
light 2: B1 light 2
modifications: linker-drug LD-1 (MMAE) on cysteine sulfhydryls of reduced disulfides; average DAR between 3.7 and 4.3
B4: ADC-5 (AM3-ZH3 conjugated to LD-1) (antibody, human IgG1, kappa, V domains shown)
VH: EVQLVESGGGLVQPGGSLRLSCAASGFTFSSYPMSWVRQAPGKGLEWVSSISTGASAYFPDSVKGRFTISRDNAKNSLYLQMNSLRAEDTAVYYCARITTSTWYMDVWGQGTTVTVSS
VL: DIQMTQSPSAMSASVGDRVTITCKASQDIYSYLSWFQQKPGKVPKTLIYRANRLVRGVPSRFSGSGSGQEYTLTISSLQPEDMATYYCLQYDEFPYTFGQGTKLEIKR
modifications: linker-drug LD-1 (MMAE) on cysteine sulfhydryls of reduced disulfides; average DAR between 3.7 and 4.3
B5: AM3-ZH7 (antibody, human IgG1, kappa, V domains shown)
VH: B4 VH with P33A
VL: B4 VL
B6: ADC-2 (AM3-ZH3 conjugated to LD-14) (antibody, human IgG1, kappa, V domains shown)
VH: B4 VH
VL: B4 VL
modifications: linker-drug LD-14 (eribulin) on cysteine sulfhydryls of reduced disulfides; average DAR between 3.7 and 4.3
B7: AM3-ZH5 (antibody, human IgG1, kappa, V domains shown)
VH: B4 VH with P33A
VL: B4 VL with Y30F, R56S
B8: AM3-ZH6 (antibody, human IgG1, kappa, V domains shown)
VH: B4 VH with P33A
VL: B4 VL with R56G
B9: H10-hVH4-hVL4 (antibody, human IgG1, kappa, V domains shown)
VH: B4 VH with P33A, M105F
VL: B4 VL with Y30N, R56D
notes: also called H10-VH4VL4
B10: AM3-ZH4 (antibody, human IgG1, kappa, V domains shown)
VH: B4 VH with P33A, I98Y, M105H
VL: B4 VL
B11: AM3-ZH1 (antibody, human IgG1, kappa, V domains shown)
VH: B4 VH with I98Y, M105F
VL: B4 VL
B12: YR-4 (antibody, human IgG1, kappa, V domains shown)
VH: QVQLQESGPGLVKPSETLSLTCTVSGFSLTRYGVHWIRQPPGKGLEWIGVIWAGGFTNYNSSLKSRVTISKDNSKNQVSLKLSSVTAADTAVYYCARRGDGYSMQYWGQGTLVTVSS
VL: EIVLTQSPATLSLSPGERATLSCSASSQVSYIHWYQQKPGQAPRPWIYEISKLASGIPARFSGSGSGTDYTLTISSLEPEDFAVYYCQQWNYPLITFGQGTKLEIKR
B13: YR-21 (antibody, human IgG1, kappa, V domains shown)
VH: B12 VH with I48L, S62G, V67L, G101Q, Q105G
VL: B12 VL with I50T
B14: YR-8-NV (antibody, human IgG1, kappa, V domains shown)
VH: B12 VH with I48L, S61V, S62D, V67L, G101S, Q105K
VL: B12 VL with I50T
notes: YR-8 with S61V (Kabat) in the heavy chain
B15: YR-8-NL (antibody, human IgG1, kappa, V domains shown)
VH: B12 VH with I48L, S61L, S62D, V67L, G101S, Q105K
VL: B12 VL with I50T
notes: YR-8 with S61L (Kabat) in the heavy chain
B16: YR-8-NT (antibody, human IgG1, kappa, V domains shown)
VH: B12 VH with I48L, S61T, S62D, V67L, G101S, Q105K
VL: B12 VL with I50T
notes: YR-8 with S61T (Kabat) in the heavy chain
B17: YR-8-NI (antibody, human IgG1, kappa, V domains shown)
VH: B12 VH with I48L, S61I, S62D, V67L, G101S, Q105K
VL: B12 VL with I50T
notes: YR-8 with S61I (Kabat) in the heavy chain
B18: YR-8-NA (antibody, human IgG1, kappa, V domains shown)
VH: B12 VH with I48L, S61A, S62D, V67L, G101S, Q105K
VL: B12 VL with I50T
notes: YR-8 with S61A (Kabat) in the heavy chain
B19: ADC-6 (UC961 conjugated to LD-14) (antibody, human IgG1, kappa, V domains shown)
VH: QVQLQESGPGLVKPSQTLSLTCTVSGYAFTAYNIHWVRQAPGQGLEWMGSFDPYDGGSSYNQKFKDRLTISKDTSKNQVVLTMTNMDPVDTATYYCARGWYYFDYWGHGTLVTVSS
VL: DIVMTQTPLSLPVTPGEPASISCRASKSISKYLAWYQQKPGQAPRLLIYSGSTLQSGIPPRFSGSGYGTDFTLTINNIESEDAAYYFCQQHDESPYTFGEGTKVEIKR
modifications: linker-drug LD-14 (eribulin) on cysteine sulfhydryls of reduced disulfides; drug loading 3.7-4.3 per antibody
B20: ADC-7 (UC961 conjugated to LD-1) (antibody, human IgG1, kappa, V domains shown)
VH: B19 VH
VL: B19 VL
modifications: linker-drug LD-1 (MMAE) on cysteine sulfhydryls of reduced disulfides; drug loading 3.7-4.3 per antibody

Legend:
[1] = target: T1, human ROR1 expressed on cells (MDA-MB-231, Jeko-1, PA-1, HCC1187) (human, UniProt Q01973 30-937); test: cell-based or functional assay
T1 sequence (Q01973 30-937 limits assumed): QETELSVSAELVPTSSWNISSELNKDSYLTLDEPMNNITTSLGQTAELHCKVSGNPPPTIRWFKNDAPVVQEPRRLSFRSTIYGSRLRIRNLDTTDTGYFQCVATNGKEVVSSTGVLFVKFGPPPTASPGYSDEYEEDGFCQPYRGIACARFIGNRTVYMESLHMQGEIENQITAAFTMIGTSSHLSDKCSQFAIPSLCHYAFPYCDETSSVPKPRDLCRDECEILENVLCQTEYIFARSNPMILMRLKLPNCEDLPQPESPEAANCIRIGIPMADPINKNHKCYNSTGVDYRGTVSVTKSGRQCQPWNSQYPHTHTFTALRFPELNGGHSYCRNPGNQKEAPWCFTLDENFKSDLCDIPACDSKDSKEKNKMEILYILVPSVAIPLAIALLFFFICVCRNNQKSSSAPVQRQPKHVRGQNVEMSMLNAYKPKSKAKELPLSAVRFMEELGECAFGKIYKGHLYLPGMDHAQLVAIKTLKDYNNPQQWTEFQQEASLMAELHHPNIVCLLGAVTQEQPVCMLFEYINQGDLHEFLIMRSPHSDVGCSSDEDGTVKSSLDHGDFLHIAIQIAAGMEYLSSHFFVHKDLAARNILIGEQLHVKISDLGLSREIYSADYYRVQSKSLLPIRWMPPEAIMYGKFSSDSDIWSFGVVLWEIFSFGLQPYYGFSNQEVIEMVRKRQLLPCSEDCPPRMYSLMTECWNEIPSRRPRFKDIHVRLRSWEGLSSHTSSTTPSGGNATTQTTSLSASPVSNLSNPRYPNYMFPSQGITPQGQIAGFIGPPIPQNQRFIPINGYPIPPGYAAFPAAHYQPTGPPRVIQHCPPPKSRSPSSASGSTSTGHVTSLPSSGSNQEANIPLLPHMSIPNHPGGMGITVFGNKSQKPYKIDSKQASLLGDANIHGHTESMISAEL

[2] = target: T1, human ROR1 expressed on cells …; test: flow cytometry on PA-1 cells
[3] = target: T1, human ROR1 expressed on cells …; test: flow cytometry on Jeko-1 cells
[4] = target: T2, human ROR2 protein (hROR2, Kactus Biosystems, Cat. No. ROR-HM402) (human, UniProt Q01974 34-403, limits assumed); test: ELISA, plate coated with hROR2
T2 sequence (Q01974 34-403 limits assumed): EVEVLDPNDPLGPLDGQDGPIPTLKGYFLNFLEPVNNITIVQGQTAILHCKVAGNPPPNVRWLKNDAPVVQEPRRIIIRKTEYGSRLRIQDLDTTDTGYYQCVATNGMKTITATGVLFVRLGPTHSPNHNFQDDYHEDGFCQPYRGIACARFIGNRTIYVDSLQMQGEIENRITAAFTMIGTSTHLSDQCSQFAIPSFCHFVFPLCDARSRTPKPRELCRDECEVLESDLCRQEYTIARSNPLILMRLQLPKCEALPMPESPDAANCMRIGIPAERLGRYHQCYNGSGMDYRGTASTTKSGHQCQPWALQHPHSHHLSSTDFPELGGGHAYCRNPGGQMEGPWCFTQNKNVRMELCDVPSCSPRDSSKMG

[5] = target: T3, human ROR1 protein (recombinant ROR1 antigen, Kactus Biosystems) (human, UniProt Q01973 30-406, limits assumed); test: binding to ROR1 (column 'Binding to ROR1'; method not described)
T3 sequence (Q01973 30-406 limits assumed): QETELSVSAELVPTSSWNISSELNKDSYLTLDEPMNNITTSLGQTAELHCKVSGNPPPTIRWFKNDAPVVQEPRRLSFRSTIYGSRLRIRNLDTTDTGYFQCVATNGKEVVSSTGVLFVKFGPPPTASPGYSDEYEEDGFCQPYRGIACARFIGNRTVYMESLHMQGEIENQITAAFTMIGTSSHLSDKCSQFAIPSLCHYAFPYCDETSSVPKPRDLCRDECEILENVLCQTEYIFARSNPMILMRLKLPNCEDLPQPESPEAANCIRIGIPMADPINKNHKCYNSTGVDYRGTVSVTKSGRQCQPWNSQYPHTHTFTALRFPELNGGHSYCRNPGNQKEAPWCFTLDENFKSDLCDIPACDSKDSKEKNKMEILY

[6] = target: T1, human ROR1 expressed on cells …; test: flow cytometry on MDA-MB-231 cells
[7] = target: T3, human ROR1 protein (recombinant ROR1 …); test: BLI (Octet R8), antibody captured on AHC sensor, ROR1 antigen as analyte
[8] = target: T2, human ROR2 protein (hROR2, Kactus …); test: ELISA, plate coated with hROR2; remark: listed apart in the source
[9] = target: T3, human ROR1 protein (recombinant ROR1 …); test: BLI (Octet R8), antibody captured on AHC sensor, ROR1 antigen as analyte; remark: listed apart in the source
[10] = target: T3, human ROR1 protein (recombinant ROR1 …); test: as above; remark: listed apart in the source
[11] = target: T2, human ROR2 protein (hROR2, Kactus …); test: ELISA, plate coated with hROR2; remark: listed apart in the source

Binder	inhibitory IC50 against the proliferation of HCC1187 cells (CellTiterGlo2) [1] [nM]	inhibitory IC50 against the proliferation of Jeko1 cells (CellTiterGlo2) [1] [nM]	inhibitory IC50 against the proliferation of PA-1 cells (CellTiterGlo2) [1] [nM]	binding result [4]	EC50 [5] [µg/mL]	EC50 [6] [µg/mL]	Kd [7] [nM]	further results
B1	0.014	0.018	0.032					
B2								EC50 [2]: 0.41 nM; MFI fold [2]: 7 fold; EC50 [3]: 0.19 nM; MFI fold [3]: 8.2 fold
B3	1.2	46.6	4.2					
B4	6.3	65.1	17.8					
B5				no binding (tested: starting from 333.33 nM)	0.0115	0.0101	8.5	
B6	0.09	0.285	0.017					
B7				no binding (tested: starting from 333.33 nM)	0.0124	0.0148	10	
B8				no binding (tested: starting from 333.33 nM)	0.012	0.013	11	
B9				no binding (tested: starting from 333.33 nM)	0.0144	0.0304	47	
B10				no binding (tested: starting from 333.33 nM)	0.0161	0.0163	27	
B11				binds	0.0127	0.0169	7.9	
B12								binding result [8]: binds; Kd [9]: 10 nM
B13								binding result [8]: binds; Kd [9]: 6.21 nM
B14								Kd [10]: 16 nM; binding result [11]: binds
B15								Kd [10]: 16 nM; binding result [11]: binds
B16								Kd [10]: 16 nM; binding result [11]: binds
B17								Kd [10]: 14 nM; binding result [11]: binds
B18								Kd [10]: 14 nM; binding result [11]: binds
B19	0.24	2.08	0.36					
B20	15.4	76.3	15.1					

Reference: patent EP4696329A1 (BioRay Pharmaceutical Co., Ltd., dated 2024)
